Test results as given in the supplement of paper PMC10126150.
± gives the standard deviation of the averaged measurements.

test system: ATP; experiment: switch fluorescence ratio, 500 uM ATP over buffer (Cy3 cluster intensity, sum of 5 cycles each) (fold (ratio)); higher = stronger signal-on switching upon ATP binding; sequences stand for … in TCGTCGGCAGCGTCAGATGTGTATAAGAGACAGTTTTTTTTTTTTTTTTTTTTTTTTT…TC; details: aptamer strand: ATP DNA aptamer (quencher-CACCTGGGGGAGTATTGCGGAGGAAGG + anchor), 100 nM annealed; ATP concentration: 500 uM
Outline: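 The fluorescence ratio divides summed target-cycle Cy3 intensity by summed buffer-cycle Cy3 intensity for each cluster and is averaged per switch-domain sequence. Cy3-labelled switching-strand clusters on a modified Illumina MiSeq flow-cell were annealed to 100 nM quencher-labelled ATP aptamer, then imaged in selection buffer and again after 15 min with 500 uM ATP at 22 °C. Five such cycles were run, with NaOH stripping and re-annealing between them, and clusters outside 100-1000 RFU were excluded.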
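Also: ATP exposure 15 min at 22 °C before imaging.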

For TGGGGGCAAG, which switch fluorescence ratio is on record?
The switch fluorescence ratio was 0.987 ± 0.018.

TGGGGGCCGG was tested. Which switch fluorescence ratio did it give?
Its switch fluorescence ratio is 1.02 ± 0.039.

With TGGGGGCGAC as the sequence, how does the switch fluorescence ratio read?
Its switch fluorescence ratio is 1 ± 0.057.

With TGGGGGCGTG as the sequence, how does the switch fluorescence ratio read?
The switch fluorescence ratio was 0.9502 ± 0.00056.

Which switch fluorescence ratio does the source give for TGGGGGGAC here?
The switch fluorescence ratio was 1.01 ± 0.061.

For TGGGGGGACC, which switch fluorescence ratio is on record?
The switch fluorescence ratio was 1.03 ± 0.05.

How did the switch fluorescence ratio turn out when TGGGGGGCAA was run?
The switch fluorescence ratio was 1.56 ± 1.1.

With TGGGGGGTCT as the sequence, how does the switch fluorescence ratio read?
The switch fluorescence ratio was 1.02 ± 0.057.

Which switch fluorescence ratio does the source give for TGGGGGGTTG here?
Its switch fluorescence ratio is 1.02 ± 0.049.

How did the switch fluorescence ratio turn out when TGGGGGTCGA was run?
The switch fluorescence ratio was 1.01 ± 0.053.

How did the switch fluorescence ratio turn out when TGGGGGTTAA was run?
Its switch fluorescence ratio is 0.981 ± 0.025.

TGGGGGTTCC was tested. Which switch fluorescence ratio did it give?
Its switch fluorescence ratio is 1.01 ± 0.025.

Which switch fluorescence ratio does the source give for TGGGGGTTGG here?
The switch fluorescence ratio was 1 ± 0.024.

For TGGGGGTTTT, which switch fluorescence ratio is on record?
The switch fluorescence ratio was 1 ± 0.032.

With TGGGGTAAAC as the sequence, how does the switch fluorescence ratio read?
The switch fluorescence ratio was 0.997 ± 0.024.

For TGGGGTAAGA, which switch fluorescence ratio is on record?
Its switch fluorescence ratio is 1.02 ± 0.015.

Which switch fluorescence ratio does the source give for TGGGGTAAGT here?
The switch fluorescence ratio was 0.993 ± 0.032.

TGGGGTATGG was tested. Which switch fluorescence ratio did it give?
The switch fluorescence ratio was 0.978 ± 0.033.

With TGGGGTATTG as the sequence, how does the switch fluorescence ratio read?
Its switch fluorescence ratio is 0.974 ± 0.012.

For TGGGGTCGGC, which switch fluorescence ratio is on record?
Its switch fluorescence ratio is 0.987 ± 0.021.

TGGGGTCTGA was tested. Which switch fluorescence ratio did it give?
Its switch fluorescence ratio is 0.974 ± 0.017.

Which switch fluorescence ratio does the source give for TGGGGTGAAC here?
Its switch fluorescence ratio is 1 ± 0.025.

How did the switch fluorescence ratio turn out when TGGGGTGCCA was run?
Its switch fluorescence ratio is 0.9795 ± 0.0071.

With TGGGGTGCTC as the sequence, how does the switch fluorescence ratio read?
The switch fluorescence ratio was 0.998 ± 0.056.

TGGGGTGGGT was tested. Which switch fluorescence ratio did it give?
The switch fluorescence ratio was 1 ± 0.039.

With TGGGGTTA as the sequence, how does the switch fluorescence ratio read?
The switch fluorescence ratio was 0.98448 ± 0.00037.

Which switch fluorescence ratio does the source give for TGGGGTTGAC here?
The switch fluorescence ratio was 0.9697 ± 0.0034.

TGGGGTTGGG was tested. Which switch fluorescence ratio did it give?
The switch fluorescence ratio was 1 ± 0.044.

How did the switch fluorescence ratio turn out when TGGGGTTGTG was run?
Its switch fluorescence ratio is 0.987 ± 0.031.

How did the switch fluorescence ratio turn out when TGGGGTTTTT was run?
The switch fluorescence ratio was 0.984 ± 0.026.

With TGGGTAAAGC as the sequence, how does the switch fluorescence ratio read?
The switch fluorescence ratio was 1.03 ± 0.017.

Which switch fluorescence ratio does the source give for TGGGTAACGG here?
The switch fluorescence ratio was 0.999 ± 0.0039.

With TGGGTAATAT as the sequence, how does the switch fluorescence ratio read?
The switch fluorescence ratio was 1.032 ± 0.0077.

How did the switch fluorescence ratio turn out when TGGGTACACG was run?
The switch fluorescence ratio was 1 ± 0.0019.

How did the switch fluorescence ratio turn out when TGGGTAGGCT was run?
Its switch fluorescence ratio is 0.996 ± 0.035.

For TGGGTATAAT, which switch fluorescence ratio is on record?
The switch fluorescence ratio was 1.014 ± 0.0096.

For TGGGTATAT, which switch fluorescence ratio is on record?
The switch fluorescence ratio was 1.01 ± 0.011.

For TGGGTATGTG, which switch fluorescence ratio is on record?
Its switch fluorescence ratio is 0.972 ± 0.038.

For TGGGTATTAG, which switch fluorescence ratio is on record?
The switch fluorescence ratio was 0.992 ± 0.054.

How did the switch fluorescence ratio turn out when TGGGTATTGT was run?
The switch fluorescence ratio was 1.02 ± 0.047.

How did the switch fluorescence ratio turn out when TGGGTCAAAG was run?
The switch fluorescence ratio was 0.9881 ± 0.0088.

For TGGGTCCATA, which switch fluorescence ratio is on record?
Its switch fluorescence ratio is 0.95611 ± 0.00081.

How did the switch fluorescence ratio turn out when TGGGTCGGCT was run?
Its switch fluorescence ratio is 1.06 ± 0.1.

With TGGGTCGGGA as the sequence, how does the switch fluorescence ratio read?
The switch fluorescence ratio was 0.982 ± 0.031.

For TGGGTCTGAT, which switch fluorescence ratio is on record?
The switch fluorescence ratio was 0.9865 ± 0.0031.

Which switch fluorescence ratio does the source give for TGGGTGAATT here?
The switch fluorescence ratio was 0.98 ± 0.017.

For TGGGTGCTGA, which switch fluorescence ratio is on record?
The switch fluorescence ratio was 0.954 ± 0.052.

How did the switch fluorescence ratio turn out when TGGGTGGACA was run?
Its switch fluorescence ratio is 1.02 ± 0.08.

TGGGTGGGAC was tested. Which switch fluorescence ratio did it give?
Its switch fluorescence ratio is 1.04 ± 0.036.

How did the switch fluorescence ratio turn out when TGGGTGGGCT was run?
Its switch fluorescence ratio is 0.975 ± 0.011.

With TGGGTGGGGA as the sequence, how does the switch fluorescence ratio read?
The switch fluorescence ratio was 1 ± 0.036.

With TGGGTGGTGC as the sequence, how does the switch fluorescence ratio read?
Its switch fluorescence ratio is 0.965 ± 0.011.

TGGGTGGTTG was tested. Which switch fluorescence ratio did it give?
Its switch fluorescence ratio is 1.02 ± 0.035.

With TGGGTGTAGG as the sequence, how does the switch fluorescence ratio read?
Its switch fluorescence ratio is 1.007 ± 0.004.

With TGGGTTAATT as the sequence, how does the switch fluorescence ratio read?
Its switch fluorescence ratio is 0.989 ± 0.026.

How did the switch fluorescence ratio turn out when TGGGTTACGG was run?
Its switch fluorescence ratio is 0.983 ± 0.036.

Which switch fluorescence ratio does the source give for TGGGTTAGCC here?
The switch fluorescence ratio was 1.01 ± 0.038.

TGGGTTCACT was tested. Which switch fluorescence ratio did it give?
Its switch fluorescence ratio is 1.02 ± 0.017.

TGGGTTCGGA was tested. Which switch fluorescence ratio did it give?
Its switch fluorescence ratio is 0.985 ± 0.023.

For TGGGTTGACG, which switch fluorescence ratio is on record?
The switch fluorescence ratio was 0.998 ± 0.037.

How did the switch fluorescence ratio turn out when TGGGTTGAGG was run?
The switch fluorescence ratio was 0.997 ± 0.016.

For TGGGTTGCTG, which switch fluorescence ratio is on record?
The switch fluorescence ratio was 1.05 ± 0.066.

For TGGGTTTGTC, which switch fluorescence ratio is on record?
The switch fluorescence ratio was 0.96 ± 0.049.

With TGGGTTTTAT as the sequence, how does the switch fluorescence ratio read?
The switch fluorescence ratio was 0.9954 ± 0.0094.

For TGGGTTTTGA, which switch fluorescence ratio is on record?
Its switch fluorescence ratio is 1.01 ± 0.033.

Which switch fluorescence ratio does the source give for TGGGTTTTGG here?
The switch fluorescence ratio was 0.997 ± 0.052.

For TGGGTTTTTT, which switch fluorescence ratio is on record?
The switch fluorescence ratio was 1.01 ± 0.048.

For TGGTAAAACT, which switch fluorescence ratio is on record?
The switch fluorescence ratio was 1.06 ± 0.034.

TGGTAAATCG was tested. Which switch fluorescence ratio did it give?
The switch fluorescence ratio was 1.03 ± 0.038.

For TGGTAAATGT, which switch fluorescence ratio is on record?
The switch fluorescence ratio was 0.97 ± 0.013.

TGGTAACGCG was tested. Which switch fluorescence ratio did it give?
Its switch fluorescence ratio is 1 ± 0.014.

TGGTAAGGGG was tested. Which switch fluorescence ratio did it give?
The switch fluorescence ratio was 1.12 ± 0.25.

How did the switch fluorescence ratio turn out when TGGTAATAGG was run?
The switch fluorescence ratio was 1.0108 ± 0.00095.

How did the switch fluorescence ratio turn out when TGGTACACGT was run?
The switch fluorescence ratio was 0.989 ± 0.014.

Which switch fluorescence ratio does the source give for TGGTACATCA here?
Its switch fluorescence ratio is 0.973 ± 0.054.

How did the switch fluorescence ratio turn out when TGGTACATTA was run?
Its switch fluorescence ratio is 1.34 ± 0.46.

For TGGTACCACT, which switch fluorescence ratio is on record?
Its switch fluorescence ratio is 0.996 ± 0.014.

For TGGTACGGGA, which switch fluorescence ratio is on record?
Its switch fluorescence ratio is 0.999 ± 0.043.

Which switch fluorescence ratio does the source give for TGGTACTTGT here?
Its switch fluorescence ratio is 1.01 ± 0.027.

How did the switch fluorescence ratio turn out when TGGTAGAGTG was run?
Its switch fluorescence ratio is 0.987 ± 0.0027.

With TGGTAGGGTA as the sequence, how does the switch fluorescence ratio read?
Its switch fluorescence ratio is 1.03 ± 0.034.

With TGGTAGGGTT as the sequence, how does the switch fluorescence ratio read?
Its switch fluorescence ratio is 0.969 ± 0.028.

With TGGTAGGTA as the sequence, how does the switch fluorescence ratio read?
Its switch fluorescence ratio is 0.987 ± 0.013.

For TGGTAGTGCT, which switch fluorescence ratio is on record?
The switch fluorescence ratio was 1.01 ± 0.018.

TGGTAGTTTG was tested. Which switch fluorescence ratio did it give?
The switch fluorescence ratio was 0.9951 ± 0.0039.

How did the switch fluorescence ratio turn out when TGGTATAACG was run?
Its switch fluorescence ratio is 0.964 ± 0.025.

Which switch fluorescence ratio does the source give for TGGTATGGTT here?
Its switch fluorescence ratio is 0.996 ± 0.011.

TGGTATTTAT was tested. Which switch fluorescence ratio did it give?
Its switch fluorescence ratio is 1.012 ± 0.0072.

TGGTATTTTA was tested. Which switch fluorescence ratio did it give?
Its switch fluorescence ratio is 0.982 ± 0.028.

For TGGTCAAATC, which switch fluorescence ratio is on record?
The switch fluorescence ratio was 1 ± 0.051.

With TGGTCAGAGT as the sequence, how does the switch fluorescence ratio read?
Its switch fluorescence ratio is 1.01 ± 0.023.

Which switch fluorescence ratio does the source give for TGGTCCTAGT here?
The switch fluorescence ratio was 0.975 ± 0.017.

Which switch fluorescence ratio does the source give for TGGTCGCAGC here?
The switch fluorescence ratio was 1.01 ± 0.018.

With TGGTCTCTTT as the sequence, how does the switch fluorescence ratio read?
The switch fluorescence ratio was 1 ± 0.039.

For TGGTCTTAGA, which switch fluorescence ratio is on record?
Its switch fluorescence ratio is 1.01 ± 0.012.

Which switch fluorescence ratio does the source give for TGGTCTTGTA here?
Its switch fluorescence ratio is 1.04 ± 0.021.

Which switch fluorescence ratio does the source give for TGGTGAAAAG here?
Its switch fluorescence ratio is 0.97 ± 0.059.

With TGGTGACTGA as the sequence, how does the switch fluorescence ratio read?
Its switch fluorescence ratio is 0.981 ± 0.011.

With TGGTGAGGGG as the sequence, how does the switch fluorescence ratio read?
The switch fluorescence ratio was 1.12 ± 0.24.

For TGGTGAGTTT, which switch fluorescence ratio is on record?
Its switch fluorescence ratio is 0.984 ± 0.019.
